Biological target: T1, CSC (Vps26/Vps29-GFP/Vps35) (Saccharomyces cerevisiae, UniProt P40335)
T1 chain 1: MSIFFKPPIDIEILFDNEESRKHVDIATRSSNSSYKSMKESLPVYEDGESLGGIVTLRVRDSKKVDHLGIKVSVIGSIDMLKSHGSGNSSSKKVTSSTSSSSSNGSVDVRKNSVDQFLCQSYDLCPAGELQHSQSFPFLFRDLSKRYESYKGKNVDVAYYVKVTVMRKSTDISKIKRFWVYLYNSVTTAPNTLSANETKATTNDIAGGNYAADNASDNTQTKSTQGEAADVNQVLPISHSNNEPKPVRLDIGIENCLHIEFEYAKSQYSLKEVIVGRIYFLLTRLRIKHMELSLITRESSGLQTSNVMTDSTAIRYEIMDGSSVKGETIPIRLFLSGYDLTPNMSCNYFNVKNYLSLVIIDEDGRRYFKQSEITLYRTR
T1 chain 2: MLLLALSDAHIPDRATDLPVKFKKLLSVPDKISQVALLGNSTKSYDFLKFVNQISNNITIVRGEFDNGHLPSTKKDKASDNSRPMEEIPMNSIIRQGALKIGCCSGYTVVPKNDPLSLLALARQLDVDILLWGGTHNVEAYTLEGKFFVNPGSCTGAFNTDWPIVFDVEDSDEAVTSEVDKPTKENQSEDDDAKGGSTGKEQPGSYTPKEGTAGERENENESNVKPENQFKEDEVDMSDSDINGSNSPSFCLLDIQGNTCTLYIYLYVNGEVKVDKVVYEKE
T1 chain 3: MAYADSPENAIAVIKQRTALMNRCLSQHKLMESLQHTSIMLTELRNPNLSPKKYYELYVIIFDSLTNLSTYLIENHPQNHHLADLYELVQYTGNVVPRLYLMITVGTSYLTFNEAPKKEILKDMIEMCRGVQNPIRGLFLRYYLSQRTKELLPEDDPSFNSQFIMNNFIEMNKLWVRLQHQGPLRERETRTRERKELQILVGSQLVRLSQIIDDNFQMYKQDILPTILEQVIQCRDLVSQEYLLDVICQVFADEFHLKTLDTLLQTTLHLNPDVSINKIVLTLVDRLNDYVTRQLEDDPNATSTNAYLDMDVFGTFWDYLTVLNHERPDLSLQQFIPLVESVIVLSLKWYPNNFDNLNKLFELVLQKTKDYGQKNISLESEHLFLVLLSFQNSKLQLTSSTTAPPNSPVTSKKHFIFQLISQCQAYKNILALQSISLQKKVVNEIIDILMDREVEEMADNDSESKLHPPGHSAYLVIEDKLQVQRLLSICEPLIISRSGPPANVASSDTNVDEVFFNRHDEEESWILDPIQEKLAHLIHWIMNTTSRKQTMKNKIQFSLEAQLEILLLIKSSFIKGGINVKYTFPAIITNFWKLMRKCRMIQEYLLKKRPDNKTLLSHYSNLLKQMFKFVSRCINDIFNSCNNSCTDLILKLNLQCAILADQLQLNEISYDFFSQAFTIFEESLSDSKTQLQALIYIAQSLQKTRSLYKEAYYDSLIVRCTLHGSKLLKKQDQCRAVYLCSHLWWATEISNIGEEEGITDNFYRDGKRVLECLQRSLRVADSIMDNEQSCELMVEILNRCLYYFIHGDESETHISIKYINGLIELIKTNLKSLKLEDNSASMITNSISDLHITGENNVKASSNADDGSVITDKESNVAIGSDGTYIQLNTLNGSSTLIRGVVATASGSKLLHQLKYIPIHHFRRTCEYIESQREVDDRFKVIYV
Assay: fluorescence titration (Vps29-GFP emission increase)

Kd: ~50 nM
B1: Atg18 (protein)
chain: MSDSSPTINFINFNQTGTCISLGTSKGFKIFNCEPFGKFYSEDSGGYAIVEMLFSTSLLALVGIGDQPALSPRRLRIINTKKHSIICEVTFPTSILSVKMNKSRLVVLLQEQIYIYDINTMRLLHTIETNPNPRGLMAMSPSVANSYLVYPSPPKVINSEIKAHATTNNITLSVGGNTETSFKRDQQDAGHSDISDLDQYSSFTKRDDADPTSSNGGNSSIIKNGDVIVFNLETLQPTMVIEAHKGEIAAMAISFDGTLMATASDKGTIIRVFDIETGDKIYQFRRGTYATRIYSISFSEDSQYLAVTGSSKTVHIFKLGHSMSNNKLDSDDSNMEEAAADDSSLDTTSIDALSDEENPTRLAREPYVDASRKTMGRMIRYSSQKLSRRAARTLGQIFPIKVTSLLESSRHFASLKLPVETNSHVMTISSIGSPIDIDTSEYPELFETGNSASTESYHEPVMKMVPIRVVSSDGYLYNFVMDPERGGDCLILSQYSILMD

Reference: publication PMC9108610 (2022)
